Experimental data as given in publication doi:10.64898/2025.12.17.694860 (2025).

Target: T1, Trypanosoma brucei enolase (Trypanosoma brucei)
T1 chain: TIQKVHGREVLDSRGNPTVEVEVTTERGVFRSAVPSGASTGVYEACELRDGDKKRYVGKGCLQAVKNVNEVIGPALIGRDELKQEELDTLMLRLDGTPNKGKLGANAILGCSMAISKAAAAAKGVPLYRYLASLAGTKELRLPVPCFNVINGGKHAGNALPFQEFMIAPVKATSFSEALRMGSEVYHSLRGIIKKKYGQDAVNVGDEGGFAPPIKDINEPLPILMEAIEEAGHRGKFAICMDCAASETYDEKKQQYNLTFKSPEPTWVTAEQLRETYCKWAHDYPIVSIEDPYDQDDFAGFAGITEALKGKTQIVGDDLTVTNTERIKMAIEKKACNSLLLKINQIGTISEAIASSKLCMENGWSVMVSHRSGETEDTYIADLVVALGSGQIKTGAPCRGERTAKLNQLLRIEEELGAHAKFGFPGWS
Experiment: ITC

B1: sdAbR1-10 (VHH)
VHH: QVQLQESGGGLVQPGGSLRLSCAAPGSIFSIFSGNIMGWYRQAPGKQRDFVASISSGGATNYADSVKGRFTISRDNAKNTVYLQMNNLKPEDTAVYYCNTVGGVHTNSWGQGTQVTVSS
Q: With B1 as the binder, how does the Kd read?
A: The Kd was 18.6 nM.
